Results: US20110263454A1, “Methods of Identifying Functional Characteristics of Promoters, Transcription Modifying Proteins and Transcription Modulating Agents” (Salk Institute for Biological Studies, priority 2008, published 2011)

B1: Erb: Estrogen Receptor β (NR3A2, ERb), cDNA driver (protein, UniProt Q92731 1-530, looked up)
Estrogen receptor beta: MDIKNSPSSLNSPSSYNCSQSILPLEHGSIYIPSSYVDSHHEYPAMTFYSPAVMNYSIPSNVTNLEGGPGRQTTSPNVLWPTPGHLSPLVVHRQLSHLYAEPQKSPWCEARSLEHTLPVNRETLKRKVSGNRCASPVTGPGSKRDAHFCAVCSDYASGYHYGVWSCEGCKAFFKRSIQGHNDYICPATNQCTIDKNRRKSCQACRLRKCYEVGMVKCGSRRERCGYRLVRRQRSADEQLHCAGKAKRSGGHAPRVRELLLDALSPEQLVLTLLEAEPPHVLISRPSAPFTEASMMMSLTKLADKELVHMISWAKKIPGFVELSLFDQVRLLESCWMEVLMMGLMWRSIDHPGKLIFAPDLVLDRDEGKCVEGILEIFDMLLATTSRFRELKLQHKEYLCVKAMILLNSSMYPLVTATQDADSSRKLAHLLNAVTDALVWVIAKSGISSQQQSMRLANLLMLLSHVRHASNKGMEHLLNMKCKNVVPVYDLLLEMLNAHVLRGCKSSITGSECSPAEDSKSKEGSQNPQSQ
B2: CTF2: COUP-TF2 (NR2F2), cDNA driver (protein, UniProt P24468 1-414, looked up)
COUP transcription factor 2: MAMVVSTWRDPQDEVPGSQGSQASQAPPVPGPPPGAPHTPQTPGQGGPASTPAQTAAGGQGGPGGPGSDKQQQQQHIECVVCGDKSSGKHYGQFTCEGCKSFFKRSVRRNLSYTCRANRNCPIDQHHRNQCQYCRLKKCLKVGMRREAVQRGRMPPTQPTHGQFALTNGDPLNCHSYLSGYISLLLRAEPYPTSRFGSQCMQPNNIMGIENICELAARMLFSAVEWARNIPFFPDLQITDQVALLRLTWSELFVLNAAQCSMPLHVAPLLAAAGLHASPMSADRVVAFMDHIRIFQEQVEKLKALHVDSAEYSCLKAIVLFTSDACGLSDVAHVESLQEKSQCALEEYVRSQYPNQPTRFGKLLLRLPSLRTVSSSVIEQLFFVRLVGKTPIETLIRDMLLSGSSFNWPYMAIQ
B3: ERR2: Estrogen Related Receptor β (NR3B2, ERRb), cDNA driver (protein, UniProt O95718 1-433, looked up)
Steroid hormone receptor ERR2: MSSDDRHLGSSCGSFIKTEPSSPSSGIDALSHHSPSGSSDASGGFGLALGTHANGLDSPPMFAGAGLGGTPCRKSYEDCASGIMEDSAIKCEYMLNAIPKRLCLVCGDIASGYHYGVASCEACKAFFKRTIQGNIEYSCPATNECEITKRRRKSCQACRFMKCLKVGMLKEGVRLDRVRGGRQKYKRRLDSESSPYLSLQISPPAKKPLTKIVSYLLVAEPDKLYAMPPPGMPEGDIKALTTLCDLADRELVVIIGWAKHIPGFSSLSLGDQMSLLQSAWMEILILGIVYRSLPYDDKLVYAEDYIMDEEHSRLAGLLELYRAILQLVRRYKKLKVEKEEFVTLKALALANSDSMYIEDLEAVQKLQDLLHEALQDYELSQRHEEPWRTGKLLLTLPLLRQTAAKAVQHFYSVKLQGKVPMHKLFLEMLEAKV
B4: hMR: Mineralocorticoid Receptor (NR3C2, MR), cDNA driver (protein, UniProt P08235 1-984, looked up)
Mineralocorticoid receptor: METKGYHSLPEGLDMERRWGQVSQAVERSSLGPTERTDENNYMEIVNVSCVSGAIPNNSTQGSSKEKQELLPCLQQDNNRPGILTSDIKTELESKELSATVAESMGLYMDSVRDADYSYEQQNQQGSMSPAKIYQNVEQLVKFYKGNGHRPSTLSCVNTPLRSFMSDSGSSVNGGVMRAVVKSPIMCHEKSPSVCSPLNMTSSVCSPAGINSVSSTTASFGSFPVHSPITQGTPLTCSPNVENRGSRSHSPAHASNVGSPLSSPLSSMKSSISSPPSHCSVKSPVSSPNNVTLRSSVSSPANINNSRCSVSSPSNTNNRSTLSSPAASTVGSICSPVNNAFSYTASGTSAGSSTLRDVVPSPDTQEKGAQEVPFPKTEEVESAISNGVTGQLNIVQYIKPEPDGAFSSSCLGGNSKINSDSSFSVPIKQESTKHSCSGTSFKGNPTVNPFPFMDGSYFSFMDDKDYYSLSGILGPPVPGFDGNCEGSGFPVGIKQEPDDGSYYPEASIPSSAIVGVNSGGQSFHYRIGAQGTISLSRSARDQSFQHLSSFPPVNTLVESWKSHGDLSSRRSDGYPVLEYIPENVSSSTLRSVSTGSSRPSKICLVCGDEASGCHYGVVTCGSCKVFFKRAVEGQHNYLCAGRNDCIIDKIRRKNCPACRLQKCLQAGMNLGARKSKKLGKLKGIHEEQPQQQQPPPPPPPPQSPEEGTTYIAPAKEPSVNTALVPQLSTISRALTPSPVMVLENIEPEIVYAGYDSSKPDTAENLLSTLNRLAGKQMIQVVKWAKVLPGFKNLPLEDQITLIQYSWMCLSSFALSWRSYKHTNSQFLYFAPDLVFNEEKMHQSAMYELCQGMHQISLQFVRLQLTFEEYTIMKVLLLLSTIPKDGLKSQAAFEEMRTNYIKELRKMVTKCPNNSGQSWQRFYQLTKLLDSMHDLVSDLLEFCFYTFRESHALKVEFPAMLVEIISDQLPKVESGNAKPLYFHRK
B5: ERR3: Estrogen Related Receptor γ (NR3B3, ERRg), cDNA driver (protein, UniProt P62508 1-458, looked up)
Estrogen-related receptor …: MDSVELCLPESFSLHYEEELLCRMSNKDRHIDSSCSSFIKTEPSSPASLTDSVNHHSPGGSSDASGSYSSTMNGHQNGLDSPPLYPSAPILGGSGPVRKLYDDCSSTIVEDPQTKCEYMLNSMPKRLCLVCGDIASGYHYGVASCEACKAFFKRTIQGNIEYSCPATNECEITKRRRKSCQACRFMKCLKVGMLKEGVRLDRVRGGRQKYKRRIDAENSPYLNPQLVQPAKKPYNKIVSHLLVAEPEKIYAMPDPTVPDSDIKALTTLCDLADRELVVIIGWAKHIPGFSTLSLADQMSLLQSAWMEILILGVVYRSLSFEDELVYADDYIMDEDQSKLAGLLDLNNAILQLVKKYKSMKLEKEEFVTLKAIALANSDSMHIEDVEAVQKLQDVLHEALQDYEAGQHMEDPRRAGKMLMTLPLLRQTSTKAVQHFYNIKLEGKVPMHKLFLEMLEAKV
B6: CTF1: COUP-TF1 (NR2F1), cDNA driver (protein, UniProt P10589 1-423, looked up)
COUP transcription factor 1: MAMVVSSWRDPQDDVAGGNPGGPNPAAQAARGGGGGAGEQQQQAGSGAPHTPQTPGQPGAPATPGTAGDKGQGPPGSGQSQQHIECVVCGDKSSGKHYGQFTCEGCKSFFKRSVRRNLTYTCRANRNCPIDQHHRNQCQYCRLKKCLKVGMRREAVQRGRMPPTQPNPGQYALTNGDPLNGHCYLSGYISLLLRAEPYPTSRYGSQCMQPNNIMGIENICELAARLLFSAVEWARNIPFFPDLQITDQVSLLRLTWSELFVLNAAQCSMPLHVAPLLAAAGLHASPMSADRVVAFMDHIRIFQEQVEKLKALHVDSAEYSCLKAIVLFTSDACGLSDAAHIESLQEKSQCALEEYVRSQYPNQPSRFGKLLLRLPSLRTVSSSVIEQLFFVRLVGKTPIETLIRDMLLSGSSFNWPYMSIQCS
B7: CTF3: COUP-TF3 (NR2F6), cDNA driver (protein, UniProt P10588 1-404, looked up)
Nuclear receptor subfamily 2 …: MAMVTGGWGGPGGDTNGVDKAGGYPRAAEDDSASPPGAASDAEPGDEERPGLQVDCVVCGDKSSGKHYGVFTCEGCKSFFKRSIRRNLSYTCRSNRDCQIDQHHRNQCQYCRLKKCFRVGMRKEAVQRGRIPHSLPGAVAASSGSPPGSALAAVASGGDLFPGQPVSELIAQLLRAEPYPAAAGRFGAGGGAAGAVLGIDNVCELAARLLFSTVEWARHAPFFPELPVADQVALLRLSWSELFVLNAAQAALPLHTAPLLAAAGLHAAPMAAERAVAFMDQVRAFQEQVDKLGRLQVDSAEYGCLKAIALFTPDACGLSDPAHVESLQEKAQVALTEYVRAQYPSQPQRFGRLLLRLPALRAVPASLISQLFFMRLVGKTPIETLIRDMLLSGSTFNWPYGSGQ

Legend:
[1] = test system: MCP-1 promoter; assay: NHR-promoter luciferase screen, MCP-1 promoter; type: cell-based; details: for Normalized Luc. act., normalized to control / Luc. act., normalized to lacZ: MCP-1 promoter reporter; for Normalized Luc. act., normalized to control: HR without or with its ligand, relative to control; for Luc. act., normalized to lacZ: hormone receptor (HR) without or with its ligand; for mMCP-1 promoter reporter activity: transcription factor +/- ligand, control = 1.00
Outline: (§1)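 CV-1 cells were co-transfected with 50 ng NHR (homodimer or NHR/RXR heterodimer), 100 ng promoter-luciferase construct and 50 ng LacZ. Luciferase was normalized to LacZ and to a no-NHR/no-ligand control.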

[2] = test system: mDio1 promoter; assay: NHR-promoter luciferase screen, mDio1 promoter; type: cell-based, mouse; details: for Luc. act., normalized to lacZ / Normalized Luc. act., normalized to control: Dio1, HR component without or with its ligand; for mDio1 promoter reporter activity: transcription factor +/- ligand, control = 1.00
Outline: as §1

[3] = test system: hMyoD promoter; assay: NHR-promoter luciferase screen, hMyoD promoter; type: cell-based, human; details: for Luc. act., normalized to lacZ / Normalized Luc. act., normalized to control: MyoD promoter reporter, co-transfected HR, without or with its ligand; for Normalized Luc. act., normalized to control: relative to control; for luciferase activity normalized to lacZ activity and to a control, hMyoD: hMyoD promoter-luciferase, CV-1 cells, NHR +/- ligand, control = 1.00
Outline: as §1

Molecule | Normalized Luc. act., normalized to control [1] | Luc. act., normalized to lacZ [1] | mMCP-1 promoter reporter activity [1] | Luc. act., normalized to lacZ [2] | Normalized Luc. act., normalized to control [2] | mDio1 promoter reporter activity [2] | Luc. act., normalized to lacZ [3] | Normalized Luc. act., normalized to control [3] | luciferase activity normalized to lacZ activity and to a control, hMyoD [3]
B1 | 1.4 | 146.9 | 1.37 | 9.3 | 2.1 | 2.09 | 50.6 | 0.8 | 0.80
B2 | 0.0 | – | 0.00 | 20.9 | 4.7 | 4.69 | 60.9 | 1.0 | 0.96
B3 | 8.8 | 946.7 | 8.84 | 13.6 | 3.1 | 3.05 | 164.8 | 2.6 | 2.60
B4 | 0.0 | – | 0.00 | 2.4 | 0.5 | 0.55 | 37.1 | 0.6 | 0.59
B5 | 4.6 | 487.3 | 4.55 | 5.9 | 1.3 | 1.32 | 129.6 | 2.0 | 2.05
B6 | 0.0 | – | 0.00 | 17.3 | 3.9 | 3.89 | 44.8 | 0.7 | 0.71
B7 | 1.6 | 175.5 | 1.64 | 10.0 | 2.2 | 2.23 | 35.6 | 0.6 | 0.56
